Assay results as given in patent US20150203577A1 (Chugai, published 2015).
Residue numbers refer to the chain shown, from its start. Numbers in names are those of the source. Blank lines part the entries; values can stand above or below the binder they belong to.

Columns and labels:
mouse FcγRII [1] = target: T1, mouse FcγRII (mouse, UniProt P08101 30-210); assay: SPR Biacore T200, KD ratio; upper end tied to MB397 by Table 8
T1 construct: also called mFcγRII; mFcgRII
T1 sequence: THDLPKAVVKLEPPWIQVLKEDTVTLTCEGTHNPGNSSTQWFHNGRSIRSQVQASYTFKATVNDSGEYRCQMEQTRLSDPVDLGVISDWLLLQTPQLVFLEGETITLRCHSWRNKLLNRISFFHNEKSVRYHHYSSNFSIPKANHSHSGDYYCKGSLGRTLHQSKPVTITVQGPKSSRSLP

mouse FcγRII [2] = target: T1, mouse FcγRII; assay: SPR Biacore T200, KD ratio
[3] = target: T2, mouse FcγRIII extracellular domain, C-terminally His-tagged (mouse, UniProt P08508 31-215); assay: SPR Biacore T200, KD ratio
T2 construct: the whole entry is named; also called mFcγRIII; mFcgRIII
T2 chain: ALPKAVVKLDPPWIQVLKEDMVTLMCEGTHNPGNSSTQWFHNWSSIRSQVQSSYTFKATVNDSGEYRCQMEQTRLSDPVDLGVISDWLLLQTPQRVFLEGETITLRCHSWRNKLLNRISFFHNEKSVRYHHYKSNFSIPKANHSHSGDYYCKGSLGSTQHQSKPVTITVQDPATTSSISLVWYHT

[4] = target: T3, mouse FcγRII extracellular domain, C-terminally His-tagged (mouse, UniProt P08101 30-210); assay: SPR Biacore T200
T3 construct: the whole entry is named; also called mFcγRII; mFcgRII
T3 sequence: T1 sequence

relative mFcγRII-binding activity (H237-mIgG1/MRAL-k0 = 1) (mouse FcγRII [1]): 600 fold
relative mFcγRII-binding activity (H237-mIgG1/MRAL-k0 = 1) (mouse FcγRII [2]): > 500 fold
B1: H237-MB397/MRAL-k0 (antibody, mouse IgG1, kappa)
heavy: QVQLQESGPGLVKPSETLSLTCAVSGHSISHDHAWSWVRQPPGEGLEWIGFISYSGITNYNPSLQGRVTISRDNSKNTLYLQMNSLRAEDTAVYYCARSLARTTAMDYWGEGTLVTVSSAKTTPPSVYPLAPGSAAQTNSMVTLGCLVKGYFPEPVTVTWNSGSLSSGVHTFPAVLQSDLYTLSSSVTVPSSTWPSETVTCNVAHPASSTKVDKKIVPRDCGCKPCICETYEVEDVFIFPPKPKDVLTITLTPKVTCVVVDISKDDPEVQFSWFVDDVEVHTAQTQPREEQFNSTFRSVSELPIMHQDWLNGKEFKCRVNSAAFPAPIEKTISKTKGRPKAPQVYTIPPPKEQMAKDKVSLTCMITDFFPEDITVEWQWNGQPAENYKNTQPIMDTDGSYFVYSKLNVQKSNWEAGNTFTCSVLHEGLHNHHTEKSLSHSPGK
light: not shown
notes: mIgG1 with T230E/V231T/P232Y/S238E/S239D; also called template T4; copies: 2 + 2

relative mFcγRIII-binding activity (mIgG1 = 1) [3]: 0.02 fold
binding result [4]: no binding
B2: H237-MB656/MRAL-k0 (antibody, mouse IgG1, kappa)
heavy: B1 heavy with E229I, T230P, Y231A, D235F
light: not shown
notes: copies: 2 + 2
